One molecule from patent US7067274B2, “Compositions and methods for the screening pro-apoptotic compounds” (Genentech, Inc., priority 2003, dated 2006) can be followed below.

The target of one assay is T1, caspase-9 (Homo sapiens, UniProt P55211).
T1 construct: expressed in transfected cells; host or cells: 293T cells
T1 sequence (P55211 1-315 limits assumed): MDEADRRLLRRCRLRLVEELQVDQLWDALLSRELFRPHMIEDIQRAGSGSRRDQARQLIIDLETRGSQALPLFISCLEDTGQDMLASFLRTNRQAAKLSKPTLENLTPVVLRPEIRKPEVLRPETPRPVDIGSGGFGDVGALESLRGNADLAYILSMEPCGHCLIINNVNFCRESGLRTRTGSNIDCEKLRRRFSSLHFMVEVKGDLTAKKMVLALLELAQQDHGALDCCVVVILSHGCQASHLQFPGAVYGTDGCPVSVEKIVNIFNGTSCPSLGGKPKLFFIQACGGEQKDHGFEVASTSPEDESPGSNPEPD
T1 sequence (P55211 331-416 limits assumed): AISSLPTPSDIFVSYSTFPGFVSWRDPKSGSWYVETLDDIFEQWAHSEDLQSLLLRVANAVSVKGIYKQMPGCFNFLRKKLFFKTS
Briefly: Caspase-9 co-immunoprecipitation in transfected 293T cells. It counts as cell-based. The note with it: Flag-tagged BIR domain proteins, IP anti-Flag. The method, then: 293T cells were transiently transfected with caspase-9 and Flag-tagged BIR domain proteins or vector. After 40 h, cells were lysed in NP40 lysis buffer (120 mM Tris, 150 mM NaCl, 1% NP-40, 1 mM DTT and protease inhibitor cocktail) and lysates immunoprecipitated (IP) with anti-Flag antibody. Samples were then Western blotted with anti-caspase-9 and anti-Flag antibodies. […] When overexpressed, caspase-9 undergoes autocatalytic processing and it is the processed form that physically interacts with XIAP and ML-IAP BIR domains.

The target of assay [1] is wild-type mature Smac protein. Briefly: Fluorescence polarization competition assay, mature Smac protein. It counts as binding, human. The note with it: competition with 5 nM Hid-FAM probe, Ki from IC50. The method, then: A PCR product containing amino acids 56–239 of Smac/DIABLO (accession number SMAC_HUMAN) was cloned into the XbaI/XhoI sites of a pet21b+ (Novagen) generating a C-terminal His6 fusion. Pet21bSmac was transformed into Escherichia coli strain BL21(DE3) competent cells (Stratagene). Overnight cultures were diluted 1:100 and grown at 37° C. in LB media with 50 μg/ml carbenicillin to an A600 of 0.8 with vigorous shaking. Isopropyl-β-D-1-thiogalactopyranoside (IPTG) was added to a final concentration of 1 mM and cultures were grown overnight at 16° C. Cell pellets were resuspended in Buffer A (50 mM Tris (pH 8.0), 300 mM NaCl, 0.5 mM PMSF, 2 mM benzamidine, 5 mM β-mercaptoethanol) with 5 mM imidazole and placed on ice for 30 minutes. Cells were homogenized, microfluidized, and centrifuged at 15,000 rpm for 45 minutes. Supernatant was loaded onto a Ni-NTA agarose column (Qiagen™), washed with 10 column volumes Buffer A with 10 mM imidazole, and eluted with 10 column volumes Buffer A with 300 mM imidazole. Fractions containing Smac protein were pooled, concentrated and loaded on a Superdex™ 200 sizing column. Protein eluted over one column volume into 50 mM Tris (pH 7.6), 300 mM NaCl, 0.5 mM PMSF, 2 mM benzamidine and 5 mM DTT. Fractions containing Smac protein were pooled and dialyzed against 3 changes of buffer containing 50 mM Tris (pH 7.6), 0.5 mM PMSF, 2 mM benzamidine and 5 mM DTT. The dialyzed sample was loaded onto a Q-Sepharose™ FF column (Pharmacia) and eluted over a 10 column volume gradient from zero to 1 M NaCl in buffer 50 mM Tris (pH 7.6), 0.5 mM PMSF, 2 mM benzamidine and 5 mM DTT. The cDNA encoding full-length ML-IAP plus a N-terminal His6-tag was cloned into the pET15b(+) expression vector (Novagen). ML-IAP was expressed in E. coli strain BL21(DE3)pLysS. […] The protein concentration of purified proteins was determined from the absorbance at 280 nm based on the molar absorption coefficients calculated from the Edelhoch relationship (Edelhoch, (1967) Biochemistry 6: 1948–1954).
(§1) Samples were read after a 10-minute incubation. Fluorescence polarization values were plotted as a function of the antagonist concentration, and the IC50 values were obtained by fitting the data to a 4-parameter equation using Kaleidagraph™ software (Synergy software; Reading, Pa.). Inhibition constants (Ki) for the antagonists were determined from the IC50 values (Keating et al., (2000) Putting the pieces together: contribution of fluorescence polarization assays to small-molecule lead optimization. Proceedings of SPIE: In-Vitro Diagnostic Instrumentation.).
(§2) The binding affinity of the Hid-FAM probe for each of the BIR domains was determined directly using a fluorescence polarization-based assay and the result is shown graphically in FIG. 8.
Background: Fluorescence polarisation rises when a labelled molecule tumbles more slowly, as on binding a larger partner.

Assay [2] concerns the target Hid-FAM (5-carboxyflourescein-conjugated AVPFAK(5-FAM)K). As to the kind of experiment: Fluorescence polarization affinity measurement with Hid-FAM probe. It counts as binding. The note with it: 5 nM Hid-FAM, apparent Kd from EC50. The procedure: Polarization experiments were performed on an Analyst™ HT 96-384 (Molecular Devices Corp.). […] The reactions were read after an incubation time of 10 minutes at room temperature with standard cut-off filters for the fluorescein fluorophore (λex=485 nm; λem=530 nm) in 96-well black HE96 plates (Molecular Devices Corp.). Fluorescence polarization values were plotted as a function of the protein concentration, and the EC50 values were obtained by fitting the data to a 4-parameter equation using Kaleidagraph™ software (Synergy software, Reading, Pa.). The apparent Kd values were determined from the EC50 values.
as §2

Another assay relates to MCF7 cells. Briefly: Inhibition of doxorubicin-induced apoptosis in transfected MCF7 cells. The assay is classed as cell-based. The note with it: MCF7 cells transiently transfected, doxorubicin 0.5 μg/ml. The procedure:
MCF7 cells were transiently transfected with the reporter plasmid pCMV-βgal and either vector control alone or BIR domain constructs. Following transfection, cells were exposed to doxorubicin (adriamycin; 0.5 μg/ml), stained with X-gal and apoptosis assessed by counting live and dead transfected cells. Percentage apoptosis represents the mean value of at least four sample points and is representative of three independent experiments.

The target of assay [3] is Smac-9mer peptide (AVPIAQKSE). Briefly: Fluorescence polarization competition assay, Smac-9mer peptide. The assay is classed as binding. The note with it: competition with 5 nM Hid-FAM probe, Ki from IC50. The method, then:
as §1

The target of another assay is T2, ΔCARD human caspase 9 (Homo sapiens, UniProt P55211, D305A/E304A/E306A).
T2 construct: made in house
T2 sequence (P55211 139-315 E304A/D305A/E306A limits assumed): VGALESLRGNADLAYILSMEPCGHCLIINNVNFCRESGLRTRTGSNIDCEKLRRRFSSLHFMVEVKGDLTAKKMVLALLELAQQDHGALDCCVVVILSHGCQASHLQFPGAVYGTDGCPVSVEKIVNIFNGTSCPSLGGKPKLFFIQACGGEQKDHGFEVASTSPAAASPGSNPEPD
T2 sequence (P55211 316-416 limits assumed): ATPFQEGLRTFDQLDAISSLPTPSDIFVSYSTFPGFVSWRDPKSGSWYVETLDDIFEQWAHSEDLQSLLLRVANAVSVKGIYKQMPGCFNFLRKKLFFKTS
As to the kind of experiment: Determination of caspase-9 inhibitory constants (Ac-LEHD-AFC hydrolysis). The assay is classed as biochemical. The note with it: 300 nM ΔCARD caspase 9, 100 μM Ac-LEHD-AFC, 37° C.; read-out: Caspase-9 inhibition Ki(app). The procedure: ΔCARD (caspase recruitment domain) human caspase 9 (lacking the first 138 residues) with Ala substitutions at residues 304 to 306 was produced as described previously (Boatright et al., (2003) Mol Cell 11: 529–541). The third BIR of […] (residues 252–348) was also prepared as described previously (Sun et al., (2000) J Biol Chem 275(43): 33777–81).
Determination of Caspase-9 Inhibitory Constants: Recombinant ΔCARD caspase 9 (300 nM final concentration in the assay) was preactivated in salt-free caspase buffer (20 mM PIPES, 10 mM EDTA, 0.1% CHAPS and 10% (w/v) sucrose, pH 7.2) for 15 min at 37° C. Following this, a range of inhibitor concentrations were preincubated with the enzyme for 20 min at 37° C. The assay was started by the addition of Ac-LEHD-AFC (100 μM final concentration) and measured kinetically for 30 min using an fmax Fluorescence Plate Reader (Molecular Devices) at an excitation wavelength of 405 nm and an emission wavelength of 510 nm. Reaction mixtures were thermostatically controlled at 37° C. The individual Ki values for the inhibitors [I] were determined from the uninhibited substrate hydrolysis rate (vo) and the inhibited rates (vi), so that a plot of (vo/vi)−1 against [I] gives Ki(app), the equilibrium inhibition constant in the presence of substrate (Salvesen and Nagase, (1989) Proteolytic enzymes: A practical approach. R. J. Beynon and J. S. Bond. Oxford, IRL Press: 83–104).

B1: ML-IAP-BIR: wild-type ML-IAP BIR domain construct, amino acids 63–179 of accession number BIR7_HUMAN (protein)
chain: TEEEEEEGAGATLSRGPAFPGMGSEELRLASFYDWPLTAEVPPELLAAAGFFHTGHQDKVRCFFCYGGLQSWKRGDDPWTEHAKWFPSCQFLLRSKGRDFVHSVQETHSQLLGSWDP
modifications: left off: small tags and cut ends
As for B1, the “caspase-9 binding efficiency (co-immunoprecipitation, Western blot)” value with caspase-9 is recorded as “co-imnunoprecipitates processed caspase-9”. The Ki in assay [1] came to 26 nM; in assay [3], 200 nM; with ΔCARD human caspase 9, 3200 nM. The Kd in assay [2] stood at 21 nM. The “inhibition of doxorubicin-induced apoptosis” value in the assay on MCF7 cells is “confers resistance”.
